From patent publication US20140348819A1, “Methods of Treating Cancer” (Dana-Farber Cancer Institute, Inc., priority 2011, published 2014)

System: six V600E BRAF melanoma cell lines
Experiment: Screening of recombinant RTK ligands for ability to confer resistance to BRAFi (PLX4720) or MEKi (PD184352) (Table 4)
Assay type: cell-based, human
Outline: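 Resistance to BRAFi (PLX4720) or MEKi (PD184352) was tested in six V600E BRAF melanoma lines given one of 22 recombinant RTK ligands. For a subset of RTKs, activation was checked by high-throughput tyrosine kinase phosphorylation profiling and western blot.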

B1: MSP (protein, UniProt P26927 19-711, looked up)
Hepatocyte growth factor-like …: QRSPLNDFQVLRGTELQHLLHAVVPGPWQEDVADAEECAGRCGPLMDCRAFHYNVSSHGCQLLPWTQHSPHTRLRRSGRCDLFQKKDYVRTCIMNNGVGYRGTMATTVGGLPCQAWSHKFPNDHKYTPTLRNGLEENFCRNPDGDPGGPWCYTTDPAVRFQSCGIKSCREAACVWCNGEEYRGAVDRTESGRECQRWDLQHPHQHPFEPGKFLDQGLDDNYCRNPDGSERPWCYTTDPQIEREFCDLPRCGSEAQPRQEATTVSCFRGKGEGYRGTANTTTAGVPCQRWDAQIPHQHRFTPEKYACKDLRENFCRNPDGSEAPWCFTLRPGMRAAFCYQIRRCTDDVRPQDCYHGAGEQYRGTVSKTRKGVQCQRWSAETPHKPQFTFTSEPHAQLEENFCRNPDGDSHGPWCYTMDPRTPFDYCALRRCADDQPPSILDPPDQVQFEKCGKRVDRLDQRRSKLRVVGGHPGNSPWTVSLRNRQGQHFCGGSLVKEQWILTARQCFSSCHMPLTGYEVWLGTLFQNPQHGEPSLQRVPVAKMVCGPSGSQLVLLKLERSVTLNQRVALICLPPEWYVVPPGTKCEIAGWGETKGTGNDTVLNVALLNVISNQECNIKHRGRVRESEMCTEGLLAPVGACEGDYGGPLACFTHNCWVLEGIIIPNRVCARSRWPAVFTRVSVFVDWIHKVMRLG
B1 was tested, and the “ability of recombinant RTK ligand to confer resistance” value (shortened to “ability of recombinant RTK ligand”) (A2058, PD184352 - 1 uM, ligand 0.4 ng/ml) was 1.06, the “ability of recombinant RTK ligand” value (A2058, PD184352 - 1 uM, ligand 1.6 ng/ml) was 0.98 and the “ability of recombinant RTK ligand” value (A2058, PD184352 - 1 uM, ligand 6.25 ng/ml) was 1.03. For the same molecule, the “ability of recombinant RTK ligand” value (A2058, PD184352 - 1 uM, ligand 25 ng/ml) was 1.09, the “ability of recombinant RTK ligand” value (A2058, PD184352 - 1 uM, ligand 100 ng/ml) was 1.05 and the “ability of recombinant RTK ligand” value (A2058, PLX4720 - 2 uM, ligand 0.4 ng/ml) was 1.04. The “ability of recombinant RTK ligand” value (A2058, PLX4720 - 2 uM, ligand 1.6 ng/ml) was 1.02, the “ability of recombinant RTK ligand” value (A2058, PLX4720 - 2 uM, ligand 6.25 ng/ml) was 1.05 and the “ability of recombinant RTK ligand” value (A2058, PLX4720 - 2 uM, ligand 25 ng/ml) was 1.04. The “ability of recombinant RTK ligand” value (A2058, PLX4720 - 2 uM, ligand 100 ng/ml) was 1.05, the “ability of recombinant RTK ligand” value (C32, PD184352 - 1 uM, ligand 0.4 ng/ml) was 0.99 and the “ability of recombinant RTK ligand” value (C32, PD184352 - 1 uM, ligand 1.6 ng/ml) was 1.02. For the same molecule, the “ability of recombinant RTK ligand” value (C32, PD184352 - 1 uM, ligand 6.25 ng/ml) was 1.07, the “ability of recombinant RTK ligand” value (C32, PD184352 - 1 uM, ligand 25 ng/ml) was 1.01 and the “ability of recombinant RTK ligand” value (C32, PD184352 - 1 uM, ligand 100 ng/ml) was 0.95. The “ability of recombinant RTK ligand” value (C32, PLX4720 - 2 uM, ligand 0.4 ng/ml) was 1.07, the “ability of recombinant RTK ligand” value (C32, PLX4720 - 2 uM, ligand 1.6 ng/ml) was 1.01 and the “ability of recombinant RTK ligand” value (C32, PLX4720 - 2 uM, ligand 6.25 ng/ml) was 1.04. For the same molecule, the “ability of recombinant RTK ligand” value (C32, PLX4720 - 2 uM, ligand 25 ng/ml) was 1.02, the “ability of recombinant RTK ligand” value (C32, PLX4720 - 2 uM, ligand 100 ng/ml) was 0.95 and the “ability of recombinant RTK ligand” value (Colo 829, PD184352 - 1 uM, ligand 0.4 ng/ml) was 1.03. For the same molecule, the “ability of recombinant RTK ligand” value (Colo 829, PD184352 - 1 uM, ligand 1.6 ng/ml) was 0.98, the “ability of recombinant RTK ligand” value (Colo 829, PD184352 - 1 uM, ligand 6.25 ng/ml) was 1.01 and the “ability of recombinant RTK ligand” value (Colo 829, PD184352 - 1 uM, ligand 25 ng/ml) was 0.96. For the same molecule, the “ability of recombinant RTK ligand” value (Colo 829, PD184352 - 1 uM, ligand 100 ng/ml) was 0.93, the “ability of recombinant RTK ligand” value (Colo 829, PLX4720 - 2 uM, ligand 0.4 ng/ml) was 0.98 and the “ability of recombinant RTK ligand” value (Colo 829, PLX4720 - 2 uM, ligand 1.6 ng/ml) was 0.94. The “ability of recombinant RTK ligand” value (Colo 829, PLX4720 - 2 uM, ligand 6.25 ng/ml) was 1.03, the “ability of recombinant RTK ligand” value (Colo 829, PLX4720 - 2 uM, ligand 25 ng/ml) was 0.97 and the “ability of recombinant RTK ligand” value (Colo 829, PLX4720 - 2 uM, ligand 100 ng/ml) was 0.99. For the same molecule, the “ability of recombinant RTK ligand” value (G-361, PD184352 - 1 uM, ligand 0.4 ng/ml) was 1.04, the “ability of recombinant RTK ligand” value (G-361, PD184352 - 1 uM, ligand 1.6 ng/ml) was 0.96 and the “ability of recombinant RTK ligand” value (G-361, PD184352 - 1 uM, ligand 6.25 ng/ml) was 0.92. The “ability of recombinant RTK ligand” value (G-361, PD184352 - 1 uM, ligand 25 ng/ml) was 0.98, the “ability of recombinant RTK ligand” value (G-361, PD184352 - 1 uM, ligand 100 ng/ml) was 0.90 and the “ability of recombinant RTK ligand” value (G-361, PLX4720 - 2 uM, ligand 0.4 ng/ml) was 1.00. For the same molecule, the “ability of recombinant RTK ligand” value (G-361, PLX4720 - 2 uM, ligand 1.6 ng/ml) was 0.89, the “ability of recombinant RTK ligand” value (G-361, PLX4720 - 2 uM, ligand 6.25 ng/ml) was 0.91 and the “ability of recombinant RTK ligand” value (G-361, PLX4720 - 2 uM, ligand 25 ng/ml) was 0.93. The “ability of recombinant RTK ligand” value (G-361, PLX4720 - 2 uM, ligand 100 ng/ml) was 0.88, the “ability of recombinant RTK ligand” value (SK-MEL-5, PD184352 - 1 uM, ligand 0.4 ng/ml) was 0.94 and the “ability of recombinant RTK ligand” value (SK-MEL-5, PD184352 - 1 uM, ligand 1.6 ng/ml) was 1.11. For the same molecule, the “ability of recombinant RTK ligand” value (SK-MEL-5, PD184352 - 1 uM, ligand 6.25 ng/ml) was 1.00, the “ability of recombinant RTK ligand” value (SK-MEL-5, PD184352 - 1 uM, ligand 25 ng/ml) was 0.99 and the “ability of recombinant RTK ligand” value (SK-MEL-5, PD184352 - 1 uM, ligand 100 ng/ml) was 1.11. The “ability of recombinant RTK ligand” value (SK-MEL-5, PLX4720 - 2 uM, ligand 0.4 ng/ml) was 0.87, the “ability of recombinant RTK ligand” value (SK-MEL-5, PLX4720 - 2 uM, ligand 1.6 ng/ml) was 1.03 and the “ability of recombinant RTK ligand” value (SK-MEL-5, PLX4720 - 2 uM, ligand 6.25 ng/ml) was 0.98. The “ability of recombinant RTK ligand” value (SK-MEL-5, PLX4720 - 2 uM, ligand 25 ng/ml) was 1.01, the “ability of recombinant RTK ligand” value (SK-MEL-5, PLX4720 - 2 uM, ligand 100 ng/ml) was 1.12 and the “ability of recombinant RTK ligand” value (SK-MEL-28, PD184352 - 1 uM, ligand 0.4 ng/ml) was 0.95. For the same molecule, the “ability of recombinant RTK ligand” value (SK-MEL-28, PD184352 - 1 uM, ligand 1.6 ng/ml) was 0.94, the “ability of recombinant RTK ligand” value (SK-MEL-28, PD184352 - 1 uM, ligand 6.25 ng/ml) was 1.00 and the “ability of recombinant RTK ligand” value (SK-MEL-28, PD184352 - 1 uM, ligand 25 ng/ml) was 1.01. The “ability of recombinant RTK ligand” value (SK-MEL-28, PD184352 - 1 uM, ligand 100 ng/ml) was 0.97, the “ability of recombinant RTK ligand” value (SK-MEL-28, PLX4720 - 2 uM, ligand 0.4 ng/ml) was 0.92 and the “ability of recombinant RTK ligand” value (SK-MEL-28, PLX4720 - 2 uM, ligand 1.6 ng/ml) was 1.02. For the same molecule, the “ability of recombinant RTK ligand” value (SK-MEL-28, PLX4720 - 2 uM, ligand 6.25 ng/ml) was 1.00, the “ability of recombinant RTK ligand” value (SK-MEL-28, PLX4720 - 2 uM, ligand 25 ng/ml) was 0.97 and the “ability of recombinant RTK ligand” value (SK-MEL-28, PLX4720 - 2 uM, ligand 100 ng/ml) was 0.93.
